Experimental data as given in patent publication US20030068675, “Position dependent recognition of GNN nucleotide triplets by zinc fingers” (published 2003).

Tests used:
Experiment in all cases: EMSA
Settings in all cases: tags: MBP fusion
[1] = biological target: T1, ZFP SBS#375 (synthetic)
T1 chain: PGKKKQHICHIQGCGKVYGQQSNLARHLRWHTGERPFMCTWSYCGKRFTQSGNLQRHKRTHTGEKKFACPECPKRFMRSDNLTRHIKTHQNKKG
Experimental: (§1) Affinity is measured by titrating purified protein against a fixed amount of labeled double-stranded oligonucleotide target. The target typically comprises the natural binding site sequence flanked by the 3 bp found in the natural sequence and additional, constant flanking sequences. The natural binding site is typically 9 bp for a three-finger protein and 2×9 bp +intervening bases for a six finger ZFP. […] For the assay the target is added at a concentration of 1 nM or lower (the actual concentration is kept at least 10-fold lower than the expected dissociation constant), purified ZFPs are added at various concentrations, and the reaction is allowed to equilibrate for at least 45 min. In addition the reaction mixture also contains 10 mM Tris (pH 7.5), 100 mM KCl, 1 mM MgCl2, 0.1 mM ZnCl2, 5 mM DTT, 10% glycerol, 0.02% BSA. (NB: in earlier assays poly d(IC) was also added at […].) The equilibrated reactions are loaded onto a 10% polyacrylamide gel, which has been pre-run for 45 min in Tris/glycine buffer, then bound and unbound labeled target is resolved by electrophoresis at 150V.

[2] = biological target: ZFP SBS#320 (synthetic)
Experimental: as §1

[3] = biological target: ZFP SBS#319 (synthetic, UniProt P08047)
Experimental: as §1

[4] = biological target: ZFP SBS#365 (synthetic)
Experimental: as §1

[5] = biological target: T2, ZFP SBS#307 (synthetic)
T2 chain: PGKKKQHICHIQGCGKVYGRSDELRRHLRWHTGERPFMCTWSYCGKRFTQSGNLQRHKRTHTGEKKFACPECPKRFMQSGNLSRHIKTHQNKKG
Experimental: as §1

[6] = biological target: T3, ZFP SBS#297 (synthetic)
T3 chain: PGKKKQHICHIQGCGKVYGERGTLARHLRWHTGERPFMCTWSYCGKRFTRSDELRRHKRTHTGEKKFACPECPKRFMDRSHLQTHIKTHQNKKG
Experimental: as §1

[7] = biological target: ZFP SBS#324 (synthetic)
Experimental: as §1

[8] = biological target: ZFP SBS#321 (synthetic)
Experimental: as §1

[9] = biological target: ZFP SBS#323 (synthetic)
Experimental: as §1

[10] = biological target: ZFP SBS#315 (synthetic)
Experimental: as §1

[11] = biological target: T4, ZFP SBS#312 (synthetic)
T4 chain: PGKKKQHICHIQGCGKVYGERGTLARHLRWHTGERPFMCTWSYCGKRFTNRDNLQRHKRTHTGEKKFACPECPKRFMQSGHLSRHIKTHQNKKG
Experimental: as §1

[12] = biological target: T5, ZFP SBS#311 (synthetic)
T5 chain: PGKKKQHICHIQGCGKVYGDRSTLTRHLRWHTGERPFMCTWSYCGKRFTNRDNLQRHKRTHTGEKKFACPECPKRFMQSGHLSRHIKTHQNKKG
Experimental: as §1

[13] = biological target: T6, ZFP SBS#316 (synthetic)
T6 chain: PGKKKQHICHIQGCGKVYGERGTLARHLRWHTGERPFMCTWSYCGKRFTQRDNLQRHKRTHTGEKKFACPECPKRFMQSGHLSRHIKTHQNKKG
Experimental: as §1

[14] = biological target: ZFP SBS#309 (synthetic)
Experimental: as §1

[15] = biological target: ZFP SBS#314 (synthetic)
Experimental: as §1

[16] = biological target: ZFP SBS#358 (synthetic)
Experimental: as §1

[17] = biological target: T7, ZFP SBS#377 (synthetic)
T7 chain: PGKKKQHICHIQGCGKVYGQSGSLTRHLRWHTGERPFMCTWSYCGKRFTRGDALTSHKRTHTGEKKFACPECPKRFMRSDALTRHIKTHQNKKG
Experimental: as §1

[18] = biological target: T8, ZFP SBS#384 (synthetic)
T8 chain: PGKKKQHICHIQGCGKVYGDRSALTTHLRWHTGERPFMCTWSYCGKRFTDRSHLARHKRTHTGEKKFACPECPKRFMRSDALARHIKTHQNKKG
Experimental: as §1

[19] = biological target: ZFP SBS#251 (synthetic)
Experimental: as §1

[20] = biological target: T9, ZFP SBS#298 (synthetic)
T9 chain: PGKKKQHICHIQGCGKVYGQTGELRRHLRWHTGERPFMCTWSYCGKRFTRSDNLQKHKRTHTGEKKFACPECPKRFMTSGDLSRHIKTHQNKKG
Experimental: as §1

[21] = biological target: T10, ZFP SBS#301 (synthetic)
T10 chain: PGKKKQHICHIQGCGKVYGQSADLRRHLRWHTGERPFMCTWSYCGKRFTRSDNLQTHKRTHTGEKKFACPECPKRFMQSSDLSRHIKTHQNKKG
Experimental: as §1

[22] = biological target: ZFP SBS#303 (synthetic)
Experimental: as §1

[23] = biological target: ZFP SBS#302 (synthetic)
Experimental: as §1

[24] = biological target: ZFP SBS#299 (synthetic)
Experimental: as §1

[25] = biological target: T11, ZFP SBS#300 (synthetic, UniProt P08047)
T11 chain: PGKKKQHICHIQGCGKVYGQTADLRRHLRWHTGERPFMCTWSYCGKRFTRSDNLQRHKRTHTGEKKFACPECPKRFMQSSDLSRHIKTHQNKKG
Experimental: as §1

[26] = biological target: T12, ZFP SBS#304 (synthetic)
T12 chain: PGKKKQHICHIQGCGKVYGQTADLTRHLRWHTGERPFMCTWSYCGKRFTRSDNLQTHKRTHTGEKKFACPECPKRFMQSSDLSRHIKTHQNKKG
Experimental: as §1

[27] = biological target: ZFP SBS#305 (synthetic)
Experimental: as §1

[28] = biological target: T13, ZFP SBS#306 (synthetic)
T13 chain: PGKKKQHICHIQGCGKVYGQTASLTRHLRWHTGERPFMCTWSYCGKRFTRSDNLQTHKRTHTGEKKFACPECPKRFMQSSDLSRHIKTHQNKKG
Experimental: as §1

[29] = biological target: ZFP SBS#354 (synthetic)
Experimental: as §1

[30] = biological target: T14, ZFP SBS#355 (synthetic)
T14 chain: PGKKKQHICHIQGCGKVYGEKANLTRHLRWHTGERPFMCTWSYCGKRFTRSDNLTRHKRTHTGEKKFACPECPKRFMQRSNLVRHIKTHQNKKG
Experimental: as §1

[31] = biological target: ZFP SBS#363 (synthetic)
Experimental: as §1

[32] = biological target: ZFP SBS#361 (synthetic)
Experimental: as §1

[33] = biological target: ZFP SBS#352 (synthetic)
Experimental: as §1

[34] = biological target: ZFP SBS#367 (synthetic)
Experimental: as §1

[35] = biological target: T15, ZFP SBS#318 (synthetic)
T15 chain: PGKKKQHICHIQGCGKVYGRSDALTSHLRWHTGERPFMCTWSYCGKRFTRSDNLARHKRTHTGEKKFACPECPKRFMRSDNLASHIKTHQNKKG
Experimental: as §1

[36] = biological target: T16, ZFP SBS#350 (synthetic)
T16 chain: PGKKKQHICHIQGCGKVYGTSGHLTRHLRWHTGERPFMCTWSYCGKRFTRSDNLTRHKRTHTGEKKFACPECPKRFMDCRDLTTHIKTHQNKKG
Experimental: as §1

[37] = biological target: T17, ZFP SBS#381 (synthetic)
T17 chain: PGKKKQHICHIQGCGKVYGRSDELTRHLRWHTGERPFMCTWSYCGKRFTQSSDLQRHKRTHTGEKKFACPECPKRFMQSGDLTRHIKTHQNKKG
Experimental: as §1

Chain of ZFP SBS#358 (synthetic) (chain, as listed by the source): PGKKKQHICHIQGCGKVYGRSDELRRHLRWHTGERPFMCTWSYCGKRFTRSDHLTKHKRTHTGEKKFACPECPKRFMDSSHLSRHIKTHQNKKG
Chain of ZFP SBS#319 (P08047 other isoform, or with tags, fused parts or gaps): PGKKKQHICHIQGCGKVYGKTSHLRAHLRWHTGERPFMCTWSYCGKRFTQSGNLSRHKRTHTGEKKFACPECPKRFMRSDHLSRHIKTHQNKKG
Chain of ZFP SBS#320 (synthetic) (chain, as listed by the source): as the sequence (P08047 other isoform, or with tags, fused parts or gaps) above, with K20R, T21S, S22D, R25T, A26R counted along it
Chain of ZFP SBS#314 (synthetic) (chain, as listed by the source): as the sequence (P08047 other isoform, or with tags, fused parts or gaps) above, with K20D, T21R, H23S, R25T, A26R, G52S, S55Q, R78Q, D80G counted along it
Chain of ZFP SBS#361 (synthetic) (chain, as listed by the source): as the sequence (P08047 other isoform, or with tags, fused parts or gaps) above, with K20R, T21S, S22D, R25T, A26R, G52S, N53A, S55T, S83T counted along it
Chain of ZFP SBS#352 (synthetic) (chain, as listed by the source): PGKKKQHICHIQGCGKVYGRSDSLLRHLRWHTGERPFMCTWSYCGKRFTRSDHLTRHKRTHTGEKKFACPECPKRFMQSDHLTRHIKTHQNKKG
Chain of ZFP SBS#299 (synthetic) (chain, as listed by the source): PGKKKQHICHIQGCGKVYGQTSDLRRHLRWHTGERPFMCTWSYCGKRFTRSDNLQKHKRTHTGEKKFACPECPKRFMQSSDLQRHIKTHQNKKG
Chain of ZFP SBS#354 (synthetic) (chain, as listed by the source): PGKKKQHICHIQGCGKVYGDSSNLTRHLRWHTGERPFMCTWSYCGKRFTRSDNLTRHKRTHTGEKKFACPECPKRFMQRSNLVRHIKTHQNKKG
Chain of ZFP SBS#302 (synthetic) (chain, as listed by the source): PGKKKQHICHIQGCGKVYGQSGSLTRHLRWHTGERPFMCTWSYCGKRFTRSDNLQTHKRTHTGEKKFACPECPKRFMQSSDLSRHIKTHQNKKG
Chain of ZFP SBS#321 (synthetic) (chain, as listed by the source): as the sequence (P08047 other isoform, or with tags, fused parts or gaps) above, with K20T, H23N, A26R, N53H, S55Q, R78D, S79R, D80S, S83T counted along it
Chain of ZFP SBS#365 (synthetic) (chain, as listed by the source): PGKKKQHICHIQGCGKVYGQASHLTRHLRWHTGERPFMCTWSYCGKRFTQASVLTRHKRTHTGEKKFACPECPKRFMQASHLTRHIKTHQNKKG
Chain of ZFP SBS#305 (synthetic) (chain, as listed by the source): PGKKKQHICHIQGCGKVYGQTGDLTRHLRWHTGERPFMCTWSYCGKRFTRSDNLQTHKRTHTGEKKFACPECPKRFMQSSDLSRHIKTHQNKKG
Chain of ZFP SBS#309 (synthetic) (chain, as listed by the source): as the sequence (P08047 other isoform, or with tags, fused parts or gaps) above, with K20E, T21R, H23D, A26R, G52S, S55Q, R78Q, D80G counted along it
Chain of ZFP SBS#303 (synthetic) (chain, as listed by the source): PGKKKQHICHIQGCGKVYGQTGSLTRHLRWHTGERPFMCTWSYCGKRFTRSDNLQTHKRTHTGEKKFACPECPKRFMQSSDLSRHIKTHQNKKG
Chain of ZFP SBS#324 (synthetic) (chain, as listed by the source): as the sequence (P08047 other isoform, or with tags, fused parts or gaps) above, with K20T, H23N, A26R, N53H, S55Q, R78D, S79R, S83T counted along it
Chain of ZFP SBS#323 (synthetic) (chain, as listed by the source): as the sequence (P08047 other isoform, or with tags, fused parts or gaps) above, with K20T, H23N, A26R, N53H, S55Q, R78D, S79R, S83T counted along it

B1: GAGGAAGAT (dsDNA)
DNA 1: GAGGAAGAT
DNA 2: ATCTTCCTC
Kd [1]: 85 nM

B2: GGGGAAGGG (dsDNA)
DNA 1: GGGGAAGGG
DNA 2: CCCTTCCCC
Kd [2]: 5 nM | Kd [3]: 125 nM

B3: GGTGCTGGT (dsDNA)
DNA 1: GGTGCTGGT
DNA 2: ACCAGCACC
Kd [4]: 600 nM

B4: GAAGAAGCG (dsDNA)
DNA 1: GAAGAAGCG
DNA 2: CGCTTCTTC
Kd [5]: 50.5 nM

B5: TGCGCGGCC (dsDNA)
DNA 1: TGCGCGGCC
DNA 2: GGCCGCGCA
Kd [6]: 500 nM

B6: GGCGGAGAT (dsDNA)
DNA 1: GGCGGAGAT
DNA 2: ATCTCCGCC
Kd [7]: 200 nM | Kd [8]: 200 nM | Kd [9]: 600 nM

B7: GGAGATGCC (dsDNA)
DNA 1: GGAGATGCC
DNA 2: GGCATCTCC
Kd [10]: 265 nM | Kd [11]: 2000 nM | Kd [12]: 170 nM | Kd [13]: 3000 nM | Kd [14]: 4000 nM | Kd [15]: 118 nM

B8: GGCTGGGCG (dsDNA)
DNA 1: GGCTGGGCG
DNA 2: CGCCCAGCC
Kd [16]: 225 nM

B9: GTGTTGGCAG (dsDNA)
DNA 1: GTGTTGGCAG
DNA 2: CTGCCAACAC
Kd [17]: 89 nM

B10: GTGGGCTTCA (dsDNA)
DNA 1: GTGGGCTTCA
DNA 2: TGAAGCCCAC
Kd [18]: 60 nM

B11: GCGGAGGCG (dsDNA)
DNA 1: GCGGAGGCG
DNA 2: CGCCTCCGC
Kd [19]: 27.5 nM

B12: GCTTAGGCA (dsDNA)
DNA 1: GCTTAGGCA
DNA 2: TGCCTAAGC
Kd [20]: 4000 nM | Kd [21]: 350 nM | Kd [22]: 135 nM | Kd [23]: 75 nM | Kd [24]: 4000 nM | Kd [25]: 400 nM | Kd [26]: 230 nM | Kd [27]: 230 nM | Kd [28]: 280 nM

B13: GAAGAGGAC (dsDNA)
DNA 1: GAAGAGGAC
DNA 2: GTCCTCTTC
Kd [29]: 28 nM | Kd [30]: 20 nM

B14: GGGTTTGGG (dsDNA)
DNA 1: GGGTTTGGG
DNA 2: CCCAAACCC
Kd [31]: 200 nM | Kd [32]: 130 nM

B15: GGAGGGGTG (dsDNA)
DNA 1: GGAGGGGTG
DNA 2: CACCCCTCC
Kd [33]: 26 nM

B16: GGGGGCGGG (dsDNA)
DNA 1: GGGGGCGGG
DNA 2: CCCGCCCCC
Kd [34]: 60 nM

B17: TAGGAGATGC (dsDNA)
DNA 1: TAGGAGATGC
DNA 2: GCATCTCCTA
Kd [35]: 100 nM

B18: TCCGAGGGT (dsDNA)
DNA 1: TCCGAGGGT
DNA 2: ACCCTCGGA
Kd [36]: 332 nM

B19: GCAGCTGCGC (dsDNA)
DNA 1: GCAGCTGCGC
DNA 2: GCGCAGCTGC
Kd [37]: 1.5 nM
